# Results reported in the DeepSol protein solubility set.
# Assay: soluble on expression in E. coli; label from the status in PepcDB or PDB records
row,Sequence,soluble on expression in E. coli
1,MSEKTFLVEIGTEELPPKALRSLAESFAANFTAELDNAGLAHGTVQWFAAPRRLALKVANLAEAQPDREIEKRGPAIAQAFDAEGKPSKAAEGWARGCGITVDQAERLTTDKGEWLLYRAHVKGESTEALLPNMVATSLAKLPIPKLMRWGASDVHFVRPVHTVTLLLGDKVIPATILGIQSDRVIRGHRFMGEPEFTIDNADQYPEILRERGKVIADYEERKAKIKADAEEAARKIGGNADLSESLLEEVASLVEWPVVLTAKFEEKFLAVPAEALVYTMKGDQKYFPVYANDGKLLPNFIFVANIESKDPQQIISGNEKVVRPRLADAEFFFNTDRKKRLEDNLPRLQTVLFQQQLGTLRDKTDRIQALAGWIAEQIGADVNHATRAGLLSKCDLMTNMVFEFTDTQGVMGMHYARHDGEAEDVAVALNEQYQPRFAGDDLPSNPVACALAIADKMDTLAGIFGIGQHPKGDKDPFALRRAALGVLRIIVEKNLNLDLQTLTEEAVRLYGDKLTNANVVDDVIDFMLGRFRAWYQDEGYTVDTIQAVLARRPTRPADFDARMKAVSHFRTLDAAAALAAANKRVSNILAKSDEVLSDRVNASTLKEPEEIKLAMQVVVLRDKLEPYFTEGRYQDALVELAELREPVDAFFDKVMVMVDDKELRINRLTMLEKLRELFLRVADISLLQ,soluble
2,HNITRPIRSMSSTCREINKNKGNYRSYRFESVKRKDEIGQLAVTFESLLRNMDNYTKMEYTSKMSATLAHEIKNPIAGIRSGIQLLKGRAAKESDKMLCESMIKEVDRVTTLIMNLFTLSVKKESPKELISFEKVIGEIAMIYSKGAEGQGVVMETAVEEGLTGYLNENEFRQIAHNLISNSIKSVIPGIEGRIRISGRESGNKALIEFQDNGKGMSREELTRAMEPFYTKSINGIGIGLAIVKKLVEQNGGLMEMASACGEGTCVRLTFYRRVEDYEENISRG,not soluble
3,IRRNETTEADKQIPHYEREIIYQVLYDMKKEIADLKGMMNRLAHHEQPSWPVGSDVWGNDDKRTADPKWGVSTHKAPIANAAEPVEPIQEASEYTEDPVSLEEVEKKMISLALERHGGRRKQTAEELKISERTLYRKIKEYGLE,not soluble
4,MGSDKIHHHHHHMNILLVYKEDYPWDVRVEKIALSLISRGHDVTIVARNRQCSKTTETVNGIEIVRLPALFKPDGLLNKLLNLPVWFNPFWIWTLRSALRGKPGALIIVRDLPLVKTALLVARGARAKIMLDMAEVYPYMYESGRQFSKGTNFESMIKSPALAARYEAKVLPKIDHTLVMIEESRDRLLQMGLSPQRVSIVSNTPPLDKFSGNTHQHQGRKLRLVYVGFLTKLRGLDLLIEAAYEYVKLGNEPSSLKIDIVGKGAEREHLIALVRDLKLEESVTIHGWLDHQRVDELMAQANVGALTYRVCPHWNHTIPNKIFDYMLAGLPVLATEVTPINRIINETKSGLVCRDLDIRDIAEKLQTLRCPELRSTLGNNGVNAVRAKYNWANDEQRLHAAVNSIAP,not soluble
5,MSLASYLDFEKNIQQIDEDIINAQIKGDTEAVSILKKNLEKEISKTYKNLSDFQRLQLARHPDRPYALDYIELILNDAHEIHGDRAFRDDPAIVCFMGYLGEKKIIVIGEQKGRGTKDKIARNFGMPHPEGYRKALRVAGLAEKFQIPILFLIDTPGAYPGIGAEERGQSEAIARNLYELSDLKIPTIAIVIGEGGSGGALAIGVADKLAMMKNSVFSVISPEGCAAILWNDPAKSEAATKAMKVTADDLKSQGLIDDVIDEPTNGAHRNKEAAAVAIADYVKKSLNELENIDVRELSANRMQKILKLGAYQEAEGHHHHHH,soluble
6,MIIRIVQNIQRINKEGNAPLYISFYLGKEKVVIPCKLSVPTTKFDSKTGMLRGTNKEAKDINLIIERLKAKVNDILVKHRLKNLTLNKEAFMREYNNPSDFKSFHDFVASYMKTYSRRLEIGTFRHHKSCMRKFKEYCEGLQFHELTEDFLRDYLIYMKKTLCNADSTAQRNLSTIKIYVSAAIKKGYMENDPFKDFGVKRIKSNIDYLTEEELIKFISLYYDRRLPERLERTLGFFLFMCFTSLHISDARHVCLEQINNGILTYYRIKNRNCKPEAIKIPLSIPAFKIIEELQGKRKEGH,not soluble
7,MTFQVILCYETVRQVAGLESELKANGFGQAQVLPNGTVPNRGSIVDLTNAISKLGVLRATAAGLAGTISRGGAVAIVPAHFGAGGKATEIMKKYNPIVDRPAAKPSAWDDAAPFSSLLRLPVITKSQPFKGHSGTPLIIEQEGAYRSNSGEPLVIKQTGGYRSMSGTPLLLDGGPYKSFSGTPLLIEQKDAYSSFSGTPLLVDSNTLFLTRA,not soluble
8,MGSDKIHHHHHHMTWGCHHLIKKVDASFSLGPISFTLEPGTVTALVGDNGSGKSTFFRLWMDLIKANQGTWERKEGWKEDTAYVPQQLIGIEAFTLEELAYLYEGMYVKWDQKTFERLVESFSLPMKKPLHSLSVGMQKKALFSMAIARKPNLFLLDEPFAGVDMDGQEQMKDELIRYLTGHEQATVLFATHSAQEVKELADYLLVLHQGQMLGFYEKDRLLSSWGRFWLEGNASAIKNEENVVSMKIAGTRIEIITSDALRFEEQIAAAALEKVEAQPLELHEIVRLLKKRNVSVS,not soluble
9,GMSEIDANYRALAQQVADKVAGRVIALDRLPESLLTAYRSLCDELLADRDGRFTRAWDQLPDSASSLFERCVFHGFYLANAWIQLSIVARDISELQDTDEAIAEQEYSGLYVRVAEAALKESVKKLKKARTDRSMYNSMREVMGI,soluble
10,MSLDSFLDIQRKKADADSKFIDCNGFRVHYKRYGSGKPPFIVLLHGSFLSIRSWRDVAVPLAENATVLAFDRPAFGLTSRPVPSRSNAARYSPEAQSDLVVALMDKLGMDRAVIVGNSTGGTLALLTALRHPRRVQGLVLVGAMIYSGYANSEVPAVMKPFMKAMSPVFSRLMKVIITKLYDKNIRGFWHVKSRLSDETLAAFRNDFMVGDWSRGFWELFLETHRLYFNRRVSSAWAPSLVVTGEHDLTVKTEESFRLARELPRAELLVIPDCAHLPQEEQPAAFVAGVKKFVEKLVEGHHHHHH,soluble
11,GPGSMQQPGSHQIQPIDSLTPFLGGKWWIRARVTDKTDIRTWNKPTSQGKLFSFTLIDESAAIRATVFNDAVDTFEPLIVNGQVYYFSGGQVKNANRRFSNVNNDYELTFDRSSEIMLARQDTSTAALPMQRYNFVPIELLKQREVGSLVDVLGVVLKVDEVSSITQKSTGRELMKRNVKMGDMTAAVEVTFWNDEAKAWCYPVGTVVALRQLKVGSFDGVTLSSTYQTKIDINPTDLPDVKKLATWYVATGGANVTSLSSQGLGAASGAGGESDRGRKYLDEIQSEGIGRGLKPEYVDVRCVPIYFKQDAQWYDACPTCNKKVTEEGAQGDRFRCEKCDKTVTPTQRYLVSIQVTDNVSQAWLTLFNEAGIEFFGMEAAELKRRAQEDPLYIAKLAQGRMNRPVVMRLRVKEEMSSNSMTGEESDRLRMSVVRISEFMPIAGTSEETRRRLAQNLRTECDEILRLIEAYV,not soluble
12,MGHHHHHHSHMESLVVGDIAELRPNQGTLSLFTNEAGGILDDLIVTNTSEGHLYVVSNAGCWEKDLALMQDKVRELQNQGRDVGLEVLDNALLALQGPTAAQVLQAGVADDLRKLPFMTSAVMEVFGVSGCRVTRCGYTGEDGVEISVPVAGAVHLATAILKNPEVKLAGLAARDSLRLEAGLCLYGNDIDEHTTPVEGSLSWTLGKRRRAAMDFPGAKVIVPQLKGRVQRRRVGLMCEGAPMRAHSPILNMEGTKIGTVTSGCPSPSLKKNVAMGYVPCEYSRPGTMLLVELPSGPCF,not soluble
13,MGSDKIHHHHHHMQIELANFEKIYTHFVGNKSDEEGITISKTPLQLNDESLKELLLNYFTHPFKNKEYNHFHHETDLNLNELYTYCSTIFADPDALYLQSINIAKHLYEQSKHPMIKGGELYVVHFNDCVIDGESTDAIGLFKSETKETFLKIFPQGDGYEAVSDKGIDIRKLDKGCFIINSEKENGYKVCVVDQTNKSSDAQYWKDDFLKIVSRNDSFHYTQNYMNMCKSFVTDQMPETFEVSKTDQIDLLNRSVNYFKKNESFDMQAFTNDVIQDEGLIDSFKEYKNKFQEDHQMPMVDEFEISTPAVKKYAKVFKSVLKLDRNFHIYIHGDKDLIERGRDDASGMNFYKIYYKEES,not soluble
14,MVKLILAEVFNSWQGEGGSVPGSAFGRRQIFVRFAGCDLRCIWCDSSQFIDASKVKKWRIEVEPFSGRFEYRENPASIDEVVDAILKLDTGDLHSISYTGGEPTLQIEGLYILMERMKGLGFDNFLETHGGHPELIKRVSYLTDYASVDIKDESARASRDWRGLVLKEVESIKILKEAGAKVYAKLVVTRETKLENVKWYANLLKGVAPLAIQPKEPMDISMEYLMKLYREAARIMGKKNVGLSFQVHKYLKVL,soluble
15,TPPSGSGNWESLFNGLYRLQQRQRRKRKELTNLIRRFRNGAESLPDAVVVFRAEGNIVWCNRLAQHLLGFHWPEDSGQPISNLIRTPDFIKYLNKKDFSEPLEMRSPLNVERMLELRIVPYTEGEHLMVVRD,not soluble
16,MIEVDGYFYHNAGAENKNTFVNDRWKMNDAAVRGYLVLRYPASSVFEELDTIVGQVIFATRVVREELVVVDSTRRWHRGPWEWLPLDSW,not soluble
17,MTFKSATGSGQQGGSSGTSAGNPDSLKQDKISKSGDSLSVVDTGQGDDTHYANLPPSITPTSDPNALSFTNKNNAQRVQLFLRGLLDSIPVLVNKSGQDDLEHHHHHH,not soluble
18,SLPPLNSLISQFEGRVYDQIINFNWHSKPENLKVIIIDIDEKSLEQEGRWPWPRSKIAELLNKLQENGVVTVGFDIVMSEAETNYALGLIEKLSQFSGKMTTDQKQLIATLNSVANQVDNDQTLVNALGKNNAILGFFFHNSEGIRKGSLPPPLRDTDSNPLLASKLSVYQFTNFNGNLAAFTAAATSGGFVTNLPDKDGVVRHALLLANYKNNLYPSLSLAIAMNYLLTDKVNLKKYNNELTGIELDGLQIPTNRKGQILIPFWGGPGTLNYYSATDILNNQFNPDELAGSIALVGSSITLLSDLHHTPVAQLFPGVEIVGNIVKGLVEQKIPREFDWESLQG,not soluble
19,MSLGLIVQKFGGTSVGSVEKIQNAANRAIAEKQKGHQVVVVVSAMGKSTDELVSLAKAISDQPSKREMDMLLATGEQVTISLLSMALQEKGYDAVSYTGWQAGIRTEAIHGNARITDIDTSVLADQLEKGKIVIVAGFQGMTEDCEITTLGRGGSDTTAVALAAALKADKCDIYTDVPGVFTTDPRYVKSARKLEGISYDEMLELANLGAGVLHPRAVEFAKNYQVPLEVRSSTETEAGTLIEEESSMEQNLIVRGIAFEDQITRVTIYGLTSGLTTLSTIFTTLAKRNINVDIIIQTQAEDKTGISFSVKTEDADQTVAVLEEYKDALEFEKIETESKLAKVSIVGSGMVSNPGVAAEMFAVLAQKNILIKMVSTSEIKVSTVVSENDMVKAVESLHDAFELSKHPSAVEGHHHHHH,soluble
20,KHSCIAVIDAGSTGSRLHIYSYDTDDTNTPIHIEEIWNKKIKPGFASIQPNSVTIDAYLTMLLADAPIHNIPVYFYATAGMRLLPQSQQKKYYDELEYWFRQQSQWQLVEAKTITGNDEALFDWLAVNYKLDTLKSVQNKSVGVMDMGGASVQIVFPMPKNAEISKHNQVELNIYGQNINLYVHSFLGLGQTEMSHQFLNSPSCFANDYPLPDGESGQGNAPSCKEEVTSLMNSVHKVNQQIQPLLALNPVNEWYSIGGISNLASSQLFHFENSELTNQSLLQQGDNQICHQQWDILNGQYPDDEYLYQYCLLSSYYYALMVDGYGINPNQTIHYIPPEQNLDWTIGVVLHRA,soluble
21,QTIKDFLAVAMKKWTAPFEPFQLIDNIYYVGTDGIAVYVIKTSQGLILMDTAMPQSTGMIKDNIAKLGFKVADIKLILNTHAHLDHTGGFAEIKKETGAQLVAGERDKPLLEGGYYPGDEKNEDLAFPAVKVDRAVKEGDRVTLGDTTLTAHATPGHSPGCTSWEMTVKDGKEDREVLFFCSGTVALNRLVGQPTYAGIVDDYRATFAKAKAMKIDVLLGPHPEVYGMQAKRAEMKDGAPNPFIKPGELVTYATSLSEDFDKQLAKQTAALEKK,soluble
